Experiment: yeast display, Sf9 membrane polyspecificity reagent, FACS + sequencing; frameworks hold sequencing errors
Summary of the method: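 In a synthetic yeast display library (Saccharomyces cerevisiae BJ5465), nanobody expression was induced with galactose for 36–48 hours. FACS gates were set low and high (top ~1%) using anti-HA fluorescence for expression and streptavidin fluorescence for binding of the Sf9 membrane reagent. Each polyreactivity label is drawn from the gate of origin.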
For “QVQLVESGGGLVQAGGSLRLSCAASGSIFVYNAMGWYRQAPGKERELVAAITTGGSTNYADSVKGRFTISRDNAKNTVYLQMNSLKPEDTAVYDCNAVHEASYAGVDYWGQGTQVTVSS”, the “polyreactivity (PSR sort gate)” value was “low polyreactivity”. For “QVQLVESGGGLVQAGGSLRLSCAASGSIFVYNAMGWYRQAPGKERELVAAITWSGGNTYYADSVKGRFTISRDNAKNTVYLEMNSLKPEDTAVSYCPAEFWQQGGWWEYDYWGQGTQVTVSS”, the “polyreactivity (PSR sort gate)” value was “low polyreactivity”. In the case of “QVQLVESGGGLVQAGGSLRLSCAASGSIFVYNAMGWYRQAPVKERELVAVITLRSGSTNYADSVKGRFTISRDNEKNTVYLQMNSLKPEDTAVYYCAADDTYHDYQRDTDDDYWGQGTQVTVSS”, the “polyreactivity (PSR sort gate)” value is reported as “low polyreactivity”. In the case of “QVQLVESGGGLVQAGGSLRLSCAASGSIFVYYAMGWYRQAPGKERELVAAISSTGGRTYYADSVKGRFTISRDNAKNTVYLQMNSLKPEDTAVYYCNAARTGYRYYDWFYDYDYWGQGTQVTVSS”, the “polyreactivity (PSR sort gate)” value is reported as “low polyreactivity”. For “QVQLVESGGGLVQAGGSLRLSCAASGSIFVYYSMGWYRQAPGKERELVATISSGASTYYADSVKGRFTISRDNAKNTVYLQMNSLKPEDTAVYYCNADNLAGSVEHDYWGQGTQVTVSS”, the “polyreactivity (PSR sort gate)” value was “low polyreactivity”. With “QVQLVESGGGLVQAGGSLRLSCAASGSIFWDYAMGRYRQAPGKERELVASITSGGSTYYADSVKGRFTISRDNAKNTVYLQMNSLKPEDTAVYYCAADGHTRHWGQTGRGAMYYWGQGTQVTVSS” the “polyreactivity (PSR sort gate)” value was “low polyreactivity”. With “QVQLVESGGGLVQAGGSLRLSCAASGSIFWFNAMGWYRQAPGKEREFVASISRSGGTTYYAHSVKGRFTISRDNAKNTVYLQMNSLKPEDTAVYYFNARAYGNGLGTGYFGKHRYDYWGQGTQVTVSS” the “polyreactivity (PSR sort gate)” value was “low polyreactivity”. In the case of “QVQLVESGGGLVQAGGSLRLSCAASGSIFWGYAMGWYRQAPGKERELVASIGGDSTNYADSVKGRFTISRDNAKNTVYIQMNSLKQEYTPVYYCAARYRTDYYPEYEYWGQGTEVTVSS”, the “polyreactivity (PSR sort gate)” value is reported as “low polyreactivity”. With “QVQLVESGGGLVQAGGSLRLSCAASGSIFWGYAMGWYRQAPGKERELVATITYGGDSTYYADSVKGRFTISRDNANNTVFLQMNSLKTEDTAVYYCNVGVEPYDYDYWGQCTQVTVSS” the “polyreactivity (PSR sort gate)” value was “low polyreactivity”. For “QVQLVESGGGLVQAGGSLRLSCAASGSIFWGYEMGSYRQAPGKERELVAAINRGGSTYYADSVKGRFTRSRDNAKNTVYLQMNSLKPEDTAVYYCAAGYPSWYYGYPYDSWGQGTQVTVSS”, the “polyreactivity (PSR sort gate)” value was “low polyreactivity”. With “QVQLVESGGGLVQAGGSLRLSCAASGSIFWLYAMGWYRQATGKERELVAAINWTGGSTNYADSVKGRFTISRDNAKNTVYLQMNSLKPEDTAVYFCAAEGVPDALDRVYWGQGTQVTVSS” the “polyreactivity (PSR sort gate)” value was “low polyreactivity”. For “QVQLVESGGGLVQAGGSLRLSCAASGSIFWPNAMGWYRQAPGKERELVAAIRRSGGSTYYADSVKGRFTISRDNAKNTVYLQMNSLKPEDTAVYYCAARADLHRRVRNIYYSWGQGTQVTVSS”, the “polyreactivity (PSR sort gate)” value was “low polyreactivity”. With “QVQLVESGGGLVQAGGSLRLSCAASGSIFWPNSMGWYRQAPGKERELVAAISWGTGSTYYADSVKGRFTISRDNAKNTVYLQMNSLKPEDTAVYYCAADGAYLDPYYDYWGQGTQVTVSS” the “polyreactivity (PSR sort gate)” value was “low polyreactivity”. In the case of “QVQLVESGGGLVQAGGSLRLSCAASGSIFWPYAMGWYRQAPGKEREFVATISSSGSRTHYADSVKGRFTISRDNAKNTVSLQMNSLKPEDTAVYYCNADNPYSDGADSLGNYWGQGTQVTVSS”, the “polyreactivity (PSR sort gate)” value is reported as “low polyreactivity”. In the case of “QVQLVESGGGLVQAGGSLRLSCAASGSIFWQNGMGWYRQAPGKEREFVAAITRTGGSTYYADSVKGRFTISRDNAKNTVYLQMNSLKPEDTAVYYCAARGGYRYTRYDYWGQGTQVTVSS”, the “polyreactivity (PSR sort gate)” value is reported as “high polyreactivity”. In the case of “QVQLVESGGGLVQAGGSLRLSCAASGSIFWRNAMGWYRQAPGKERALVAAISGNGGTTYYADSVKGRFTISRDYAKNTVYLQINSLKPEDTAVYYCAKVGKTYRTYEDWGQGTQVTVSS”, the “polyreactivity (PSR sort gate)” value is reported as “high polyreactivity”. For “QVQLVESGGGLVQAGGSLRLSCAASGSIFWSNAMGWYRQAPGKERELVAAINQSGTSTYYADSVKGRFTISRDNAKNTVYLQMNSLKTEDTAVYYCAADQVGWTYDYWGQGTQVSVSS”, the “polyreactivity (PSR sort gate)” value was “low polyreactivity”. With “QVQLVESGGGLVQAGGSLRLSCAASGSIFWSNAMGWYRQAPGKERELVAAITWSGGSTYADSVKGRFTISRDNAKNTVYLQMNSLKPEDTAVYYCAAERAILSSDKQSLWRFDYWGQGTQVTVSS” the “polyreactivity (PSR sort gate)” value was “low polyreactivity”. For “QVQLVESGGGLVQAGGSLRLSCAASGSIFWSNAMGWYRQAPGKERELVAAITWSGGSTYADSVKGRFTISRDNAKNTVYLQMNSLKPEDTAVYYCATDYPWAWFESDYWGQGTQVTVSS”, the “polyreactivity (PSR sort gate)” value was “low polyreactivity”. In the case of “QVQLVESGGGLVQAGGSLRLSCAASGSIFWSNDMGWYRQAPGKERELVAAITITGDTTYYADSVKGRFTISRDNAKNTVYLQMNSLKPEDTAVYYCAAVEVRRVADYGFCLLDYWGQGTQVTVSS”, the “polyreactivity (PSR sort gate)” value is reported as “high polyreactivity”. In the case of “QVQLVESGGGLVQAGGSLRLSCAASGSIFWSYAMGWYRQAPGKERELVAAITWGCGSTNYADSVKGRFTISRDNAKNTVYLQMNSLIAEDTGVYYCATDNRYVVDYDYWGQGTQVTVSS”, the “polyreactivity (PSR sort gate)” value is reported as “high polyreactivity”. With “QVQLVESGGGLVQAGGSLRLSCAASGSIFWTIAMGWYRQSPGKERELVASIHSSDASTDYADSVKGRFTISRDNAKNTVYLKMNSLKPEDTAVYYCNAAGAYPYYSEDYYWGQGTQVTVSS” the “polyreactivity (PSR sort gate)” value was “low polyreactivity”. For “QVQLVESGGGLVQAGGSLRLSCAASGSIFWTNAMGCYRQAPGKERELVASIHSSDASTDYADSVKGRFTISRDNEKNTVYLQMNSLKPEDTAVYYCNAAGAYPYYSEDYYWGQGSQVTVSS”, the “polyreactivity (PSR sort gate)” value was “low polyreactivity”. For “QVQLVESGGGLVQAGGSLRLSCAASGSIFWTNAMGWYRQAPGKERELVAAIRVSTGSTYYADSVKGRFTISRDNAKNTVYLQMNSLKPEVTAVYYFAARTYGWGYDYWGQGTQVTVSS”, the “polyreactivity (PSR sort gate)” value was “low polyreactivity”. With “QVQLVESGGGLVQAGGSLRLSCAASGSIFWVYAMGWYRQAPGKEREFVATISTDGGSTHYADSVKGRFTISRDNAKNTFYLQMNSLKPEDTAVYYCAADTPWYDDNYDYWGQGTQVTVSS” the “polyreactivity (PSR sort gate)” value was “low polyreactivity”. With “QVQLVESGGGLVQAGGSLRLSCAASGSIFWVYTMGWYREAPGKERELVAASRSRGGSTYYADSVKGRFTISRDKAKNTVYLQMNSLKPEDTAVYYGNADYYYEVDSWGQGTQVTVSS” the “polyreactivity (PSR sort gate)” value was “low polyreactivity”. With “QVQLVESGGGLVQAGGSLRLSCAASGSIFWWNAMGWYRQAPGKERELVAGISRGGSTYYADSVKGRFTISRDNAKNTVYLQMNSLKPEDTAVYYCNADSDPVPAGYDYWGQGTQVTLSS” the “polyreactivity (PSR sort gate)” value was “low polyreactivity”. With “QVQLVESGGGLVQAGGSLRLSCAASGSIFWWNAMGWYRQAPGKERELVARITRGGTTYYADSVKGRFTISRDNAKNTVYLQMNSLKPEDTAVYSCNAVSGWSRYDFWGQGSQVTVSS” the “polyreactivity (PSR sort gate)” value was “low polyreactivity”. In the case of “QVQLVESGGGLVQAGGSLRLSCAASGSIFWWNTMGWYRQAPGTERELVAAITFSGGSTYYADSVKGRFTISRDNAKNTVYLQMNSLKPEDTAVYYCNADGWVSVRGTWSDGGYWGQGTQVTVSS”, the “polyreactivity (PSR sort gate)” value is reported as “low polyreactivity”. For “QVQLVESGGGLVQAGGSLRLSCAASGSIFWYNAMGWYRQAPGKERELVAAIRWRGGSTYYADSVKGRFTISRDNAKNTVYLQMNSLKPEDTAVYYCAAQVYVSQLYTSYYYWGQGTQVTVSS”, the “polyreactivity (PSR sort gate)” value was “high polyreactivity”. In the case of “QVQLVESGGGLVQAGGSLRLSCAASGSIFWYNAMGWYRQAPGKERELVAAISVGGGSTSSADSVKGRFTISRDNAKNTVYLQMHSLKPEDTAVYYCNSVRYYRLFAHYGEYGYWGQGTQVTVSS”, the “polyreactivity (PSR sort gate)” value is reported as “high polyreactivity”. For “QVQLVESGGGLVQAGGSLRLSCAASGSIFWYNAMGWYRQAPGKERELVAGITSGGDTNYADSVKGRFTISRDNAKNTVYLQMNSLKPEDTAVYYCAKRWYGGRRYDYWGQGTQVTVSS”, the “polyreactivity (PSR sort gate)” value was “low polyreactivity”. In the case of “QVQLVESGGGLVQAGGSLRLSCAASGSIFWYYAMGWYRQAPGKERELVAAISRSGGSTYYADSVKGRFTISRDNAKNTVYLQMNSLKPEDTAVYYCAAGYSSLRRFGVYYWGQGTQVTVSS”, the “polyreactivity (PSR sort gate)” value is reported as “high polyreactivity”. For “QVQLVESGGGLVQAGGSLRLSCAASGSIFWYYAMGWYRQAPGKERELVAGITRGGSTSYADSVKGRFTISRDNAKKTVYLQMNSLKPEDTAVYYCAKRNPYSRYGYWGQGTQVTVSS”, the “polyreactivity (PSR sort gate)” value was “high polyreactivity”. For “QVQLVESGGGLVQAGGSLRLSCAASGSIFYAYAMGWYRQAPGKERELVAAISASGGSTYYADSVKGRFTISRDNAKNTVYLQMNSLKPEDTAVYYCAALTYSTYQTAYRRYPKNKYWGQGTQVTVSS”, the “polyreactivity (PSR sort gate)” value was “high polyreactivity”. With “QVQLVESGGGLVQAGGSLRLSCAASGSIFYAYAMGWYRQAPGKERQLVAAIRSSDSRTYYADSVKGRFTISRDNAKNTVYLQMNSLKPEDTGVYYCDADGSRKVKFDYWGQGTQVTVSS” the “polyreactivity (PSR sort gate)” value was “high polyreactivity”. In the case of “QVQLVESGGGLVQAGGSLRLSCAASGSIFYAYAMGWYRQAPRKERELVAAITRSGGSTYYADSVKGRFTISRDNAKNTVYLQMNSLKPEDTAVYYCAAVSRSRRMDFWGQGTQVTVSS”, the “polyreactivity (PSR sort gate)” value is reported as “high polyreactivity”. With “QVQLVESGGGLVQAGGSLRLSCAASGSIFYAYTMGWYRQAPGKERELVASITKSGGSTYYADSVKGRFTISRDNAKNTVYLQMNSLKPEDTAVYYCAAAFNRYGTTSYWYRHYYWGQGTQVTVSS” the “polyreactivity (PSR sort gate)” value was “high polyreactivity”. With “QVQLVESGGGLVQAGGSLRLSCAASGSIFYDKAMGRYRQAPGKEREFVAAISLRTGRTYYADSVKGRFTISRDNAKNTVYLQMNSLKPEDTAVYYCAARGYYGPKYYYWGQGTQVTVSS” the “polyreactivity (PSR sort gate)” value was “high polyreactivity”. In the case of “QVQLVESGGGLVQAGGSLRLSCAASGSIFYDNAMGWYRQAPGNERELVAAIDDSDRTNYADSVKGRFTITRDNAKNTVYLQMNSLKPEDTAVYYCARDRWKWHYGYDYWGQGTQVTVSS”, the “polyreactivity (PSR sort gate)” value is reported as “low polyreactivity”. For “QVQLVESGGGLVQAGGSLRLSCAASGSIFYDYAMGWYRQAPGKEREFVAAITSSGGSTYYADSVKGRFTISRDNAKNTVYLQMNSLKPEDTAVYYCAAEDSDAYFIYGYWGQGTQVTVSS”, the “polyreactivity (PSR sort gate)” value was “low polyreactivity”. With “QVQLVESGGGLVQAGGSLRLSCAASGSIFYDYVMGWYRQAPGKERELVAAITRGGRTYYADSVKGRFTISRDNAKNTVYLQMNSLKPEDTAVYYCNAGRHQGYDWGQGTQVTVSS” the “polyreactivity (PSR sort gate)” value was “high polyreactivity”. In the case of “QVQLVESGGGLVQAGGSLRLSCAASGSIFYENAMGWYRQAPGKERELVAAISWNAGSTYYADSVKGRFTISRDNAKNTVYFQMNSLKPEDTAVYYCATTADGIRYDYWGQGTQVTVSS”, the “polyreactivity (PSR sort gate)” value is reported as “low polyreactivity”.

— the nanobody polyreactivity screen of Harvey et al. (2022)
